Reference: the supplement of paper PMC12042874
± gives the uncertainty stated by the source.

Assay: amyloid nucleation score (Sup35N fusion, yeast selection) (log enrichment); library NNK3; higher = more nucleation; inactive = no reads after selection
Summary of the method: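 Sup35N was fused to peptides of 20 random codons and expressed in psi-negative yeast, which were induced with 100 μM copper sulfate for 24 hours and then grown on medium lacking adenine and uracil for 7 days at 30°C. Plasmid inserts from input and output were sequenced on Illumina. The nucleation score is the DiMSum log enrichment of output over input reads, centred on the mode score of non-aggregating sequences. Sequences with under 100 input reads were left out, and random libraries had three technical output replicates.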
In the case of KKYVETVSS, the amyloid nucleation score is reported as “inactive”. For SCSLRYGMTGWPESKTYTAF, the amyloid nucleation score was “inactive”. With RQLFWPTPINNFSVVNGILL the amyloid nucleation score was “inactive”. In the case of NTRTLSMYAVHGNIRVFMAE, the amyloid nucleation score is reported as 0.917 ± 0.17. For GIFSRPFRAGRGRVIHNGPD, the amyloid nucleation score was “inactive”. With FYPKQYQKLSYVWWY the amyloid nucleation score was “inactive”. In the case of HGSAWHSISEVVTIIRACGF, the amyloid nucleation score is reported as “inactive”. With YLLKCYVMSDRSMSTCVQLE the amyloid nucleation score was “inactive”. With IVKVLFNSFGGWWYAHGLYV the amyloid nucleation score was “inactive”. In the case of HPCPK, the amyloid nucleation score is reported as “inactive”. With AQNSDHMSKATVH the amyloid nucleation score was “inactive”. Work on MEYSRVVAL yielded an amyloid nucleation score of -0.421 ± 0.66. In the case of SCLCVSW, the amyloid nucleation score is reported as “inactive”. With SDGLLLPRSRNVATVEMGDL the amyloid nucleation score was “inactive”. For LFIMFCFGIRCLEPDIRHCY, the amyloid nucleation score was “inactive”. With GLLRTLSQDMTCGRDAGQGN the amyloid nucleation score was “inactive”. In the case of ILQKSDVSII, the amyloid nucleation score is reported as “inactive”. For LQRRYFGSRSLGTFARMFQH, the amyloid nucleation score was “inactive”. With MICLLSSSCKRRCLMG the amyloid nucleation score was “inactive”. For VYVGVLVFITWYLSSLYNWA, the amyloid nucleation score was “inactive”. In the case of SLRSFECFSSCTGLWCMLWG, the amyloid nucleation score is reported as “inactive”. With CYFRVAHVLDSRILSRPGML the amyloid nucleation score was “inactive”. With YGTNQMTLPKCRYWGFYREE the amyloid nucleation score was -0.149 ± 0.7. For WQLAGYWLEWSIRPEGALDD, the amyloid nucleation score was “inactive”. In the case of SFRHKYYEHRPTIWDMDCDL, the amyloid nucleation score is reported as “inactive”. In the case of WLRSVLLRVTLLNSWHSWVS, the amyloid nucleation score is reported as “inactive”. For LNLGILACSGKRLSQSCRLT, the amyloid nucleation score was “inactive”. In the case of SLVGRSCLRY, the amyloid nucleation score is reported as “inactive”. With RVVSSGRGNSHTAATGWLWQ the amyloid nucleation score was “inactive”. In the case of ESDFRLYSCFDWNVVAMNYR, the amyloid nucleation score is reported as 1.44 ± 0.074. For DDDLHWWKYRCVACDSLWEI, the amyloid nucleation score was “inactive”. For LNQLRSDITGLMSMTWDDLC, the amyloid nucleation score was “inactive”. In the case of SDFPRMNWGFETKCDYSTVR, the amyloid nucleation score is reported as “inactive”. In the case of SRYRAEIDARYNFLRGFNAC, the amyloid nucleation score is reported as -0.449 ± 0.8. For NAWIFVKRFS, the amyloid nucleation score was “inactive”. CILYLHIAALVLLI showed an amyloid nucleation score of -1.33 ± 2.5. VFLHVWCGRVGKL gave an amyloid nucleation score of -0.089 ± 0.98. With SVSLYLNLVSLVYCLVCP the amyloid nucleation score was 1.26 ± 0.14. For RMRLRVSVILGA, the amyloid nucleation score was 0.997 ± 0.11. In the case of NHVTVYVI, the amyloid nucleation score is reported as 0.555 ± 0.29. For CLGIGWFWVPWRLGVYSQMV, the amyloid nucleation score was “inactive”. In the case of NMCSFFFRVSPVLQVQVSLV, the amyloid nucleation score is reported as 1.61 ± 0.075. With NSVDP the amyloid nucleation score was “inactive”. For ASTDEDFNTNTECT, the amyloid nucleation score was “inactive”. In the case of DRYDSVYEDGLLLLMFFDHV, the amyloid nucleation score is reported as “inactive”. In the case of KKLHALESCA, the amyloid nucleation score is reported as “inactive”. For KLFYQMILYRNG, the amyloid nucleation score was “inactive”. In the case of STTHEYDI, the amyloid nucleation score is reported as “inactive”. In the case of KEGDFPLSSSRYSYTNYLVI, the amyloid nucleation score is reported as “inactive”. For ILENVA, the amyloid nucleation score was “inactive”. For SSSVKEMQQPVTTTLETQST, the amyloid nucleation score was “inactive”. In the case of KKMLEKKI, the amyloid nucleation score is reported as “inactive”. With RCWNKVFLSYQTELI the amyloid nucleation score was “inactive”. In the case of MKLSMHVCAGAKLSGEGFRF, the amyloid nucleation score is reported as “inactive”. For GGYVRSNCGRGVVPMVTRMA, the amyloid nucleation score was “inactive”. Work on VVFCEYSTCAVRSL yielded an amyloid nucleation score of -0.219 ± 0.89. Work on EIMGICTLTVIFCKC yielded an amyloid nucleation score of 1.58 ± 0.1. With WCGRETSRQWA the amyloid nucleation score was 0.033 ± 0.39. For NLVYLLLRLYMMTFYQQRCP, the amyloid nucleation score was “inactive”. For PNNSLETTYFRVTWSFE, the amyloid nucleation score was “inactive”. In the case of ALSAYQGVFSYWCRWQWLVA, the amyloid nucleation score is reported as “inactive”. For VSRKMRLVWTRLVER, the amyloid nucleation score was “inactive”. With WMLLLTV the amyloid nucleation score was “inactive”. For FMLRFPLPPSKIHVRYMPTC, the amyloid nucleation score was “inactive”. In the case of GVYHIQPCMRCRLHKGGSDS, the amyloid nucleation score is reported as “inactive”. With KMSAPWEGQCECCGCDF the amyloid nucleation score was “inactive”. Substance STDLVIFMSTLPVCSCYCGQ has an amyloid nucleation score of 1.72 ± 0.08. With FIVPWLFICRVVRNCVDSAV the amyloid nucleation score was “inactive”. For LRVTKQVLSSMMFTITFGGD, the amyloid nucleation score was “inactive”. Work on TTFSLTLIGFNDSGVKLLM yielded an amyloid nucleation score of 2.21 ± 0.069. For NYLRSVLMASGWYWILCIHF, the amyloid nucleation score was “inactive”. With DNSSLSMK the amyloid nucleation score was “inactive”. Substance CNVNTLIFGRESNSSEHKHW has an amyloid nucleation score of 1.83 ± 0.081. In the case of YWNIMIGYLLKSTGSGRSA, the amyloid nucleation score is reported as “inactive”. In the case of VTIITMEIWL, the amyloid nucleation score is reported as 1.64 ± 0.06. For WSFCVSTREGSSNNFSRCGK, the amyloid nucleation score was “inactive”. VGVYITMVYVSIKENRVEGN showed an amyloid nucleation score of 0.804 ± 0.17. In the case of NFQTNGTLKHNN, the amyloid nucleation score is reported as “inactive”. With FFSTLVYNRRIVCWFRSGR the amyloid nucleation score was -1.49 ± 2.5. In the case of LTMPWTAYCPFKCFLLRADS, the amyloid nucleation score is reported as “inactive”. With SHRFLDNFRFTMYTDVLGIE the amyloid nucleation score was “inactive”. In the case of LFSNSLNFLIK, the amyloid nucleation score is reported as 0.679 ± 0.28. For FWSGIWSNTFRFYGAVIWPG, the amyloid nucleation score was “inactive”. For NCGVMEYGGILISYFE, the amyloid nucleation score was “inactive”. In the case of ARIPEMLWFWVGTRKRGFII, the amyloid nucleation score is reported as 1.74 ± 0.11. For LYWFCCLVIYVGPLVHPVEL, the amyloid nucleation score was “inactive”. For SLGSNEKYWERRVSSHNWTT, the amyloid nucleation score was “inactive”. In the case of ENMIRFLRDSLCGSFYNLPL, the amyloid nucleation score is reported as “inactive”. With YDSRFTKLTCQSPINWHKEV the amyloid nucleation score was “inactive”. For RARMV, the amyloid nucleation score was “inactive”. With IKKHCV the amyloid nucleation score was “inactive”. With SSLFLDCGFGV the amyloid nucleation score was “inactive”. In the case of RCRCTFYCFRVL, the amyloid nucleation score is reported as “inactive”. In the case of IEVKDSVGVRCFYTYSPTCQ, the amyloid nucleation score is reported as “inactive”. With DSSMIDRAENAH the amyloid nucleation score was “inactive”. In the case of VYNALNNSAVLQL, the amyloid nucleation score is reported as “inactive”. For HVQYLLHKFLTLVQMF, the amyloid nucleation score was “inactive”. DLISEKEQEPGRD showed an amyloid nucleation score of 0.406 ± 0.21. For ISSAYPRNICRVCGPRTR, the amyloid nucleation score was “inactive”. With IRLSQNWGSYVCSNTLNSER the amyloid nucleation score was “inactive”. For NTPFFGTGLSQTIAVKHLQM, the amyloid nucleation score was “inactive”. For KYCYIEWN, the amyloid nucleation score was “inactive”. For VYYACGMDVKNFWELRLWGD, the amyloid nucleation score was 1.99 ± 0.063. With FDSLFYCGYTYHYQVARKFR the amyloid nucleation score was “inactive”. In the case of HVYMGSFVPR, the amyloid nucleation score is reported as “inactive”. For ALVDILFLDLGLTLDLRVGL, the amyloid nucleation score was “inactive”. With NPKSSPVVTFWGTGYFSAGV the amyloid nucleation score was “inactive”. IIISSFSDWCYFGRDDSCRM showed an amyloid nucleation score of -0.36 ± 0.63. GMVNVARRKMSGLR showed an amyloid nucleation score of 1.09 ± 0.16. For RIRGTCMGL, the amyloid nucleation score was “inactive”. With CFNRITDC the amyloid nucleation score was “inactive”. For LSSYMDYGMSKVYVLWRSTW, the amyloid nucleation score was -0.117 ± 0.28. YMVVFSVNDRMFVPFY gave an amyloid nucleation score of 0.926 ± 0.15. For LFAAYCFVYDIQFTRVPGAW, the amyloid nucleation score was “inactive”. For TMASYWPMERRRTASELPGV, the amyloid nucleation score was “inactive”. With GVPIWCEKYKLILQKNWLFK the amyloid nucleation score was “inactive”. For IRTNAGSLYFYWGTLFRISH, the amyloid nucleation score was “inactive”. With RIYLA the amyloid nucleation score was “inactive”. In the case of LSGENQLG, the amyloid nucleation score is reported as “inactive”. Substance RMLLVEYCMFDFPDSFVRCN has an amyloid nucleation score of 0.131 ± 0.23. With RLKLNGAQGEFSGVWLDIWA the amyloid nucleation score was “inactive”. With TGFLSIHLSWTYTCYMIVER the amyloid nucleation score was “inactive”. For YLNSDYSMKFTRWY, the amyloid nucleation score was 1.1 ± 0.12. For DMWKFTRLLFFCDSKRCSAD, the amyloid nucleation score was “inactive”. With IRRSLAR the amyloid nucleation score was “inactive”. For WFSNWYYVARDDYLISGREE, the amyloid nucleation score was “inactive”. For NKVVMGNLWGPPVFDRCDKG, the amyloid nucleation score was “inactive”. In the case of VSLMP, the amyloid nucleation score is reported as “inactive”. With VLVNPILLPMPLQ the amyloid nucleation score was “inactive”. For RLVNVNDTGVLDVSVITRCS, the amyloid nucleation score was 0.207 ± 0.6. With PYESHDEGQGNATM the amyloid nucleation score was “inactive”. In the case of YVKIDSRFHGVSHFRFHTAY, the amyloid nucleation score is reported as “inactive”. With FMYVRCQIVADTCFGIASWG the amyloid nucleation score was -0.032 ± 0.82. Work on IFVILW yielded an amyloid nucleation score of 0.101 ± 0.6. For LTWYREDLYVRSWSCYWDQR, the amyloid nucleation score was “inactive”. In the case of CHFIRGESSRTKLGLEHTN, the amyloid nucleation score is reported as “inactive”. For CGGAMMKN, the amyloid nucleation score was “inactive”. In the case of VTRETADDATVSQFWLNPSE, the amyloid nucleation score is reported as “inactive”. With LADNIRFISN the amyloid nucleation score was “inactive”. Substance TAKGVKSDLECGCNVFRTEC has an amyloid nucleation score of 0.457 ± 0.15. With NNFTVAWFYRHGSLSISFGY the amyloid nucleation score was “inactive”. In the case of LNEYNINDFTLFSCTFIGNV, the amyloid nucleation score is reported as 2.73 ± 0.081. Work on LPLFSLSTFFFVCVVCL yielded an amyloid nucleation score of 0.464 ± 0.14. With NNIVNSLYFEMGYGVN the amyloid nucleation score was “inactive”. In the case of TTLVSNWQCSMGCCEVLWR, the amyloid nucleation score is reported as 3.32 ± 0.075. For PVARRVMDYKAGSRV, the amyloid nucleation score was “inactive”. With ACAGMDCKGYMFLWSFGRAW the amyloid nucleation score was “inactive”. For LVRCRVVWDLL, the amyloid nucleation score was “inactive”. In the case of RKYGTLCKGCVL, the amyloid nucleation score is reported as “inactive”. In the case of PYFIPYCV, the amyloid nucleation score is reported as “inactive”. In the case of CSGIIRNMLWGV, the amyloid nucleation score is reported as “inactive”. With KVWCKMLISSFIWMYVSE the amyloid nucleation score was “inactive”. For VNDVLGNEPFRVVGEEEIPG, the amyloid nucleation score was “inactive”. LYCTWNSYNSVYAI showed an amyloid nucleation score of 0.66 ± 0.2. For ASACPRLWVRLCLGCVIPKE, the amyloid nucleation score was “inactive”. YQLELSSGSM gave an amyloid nucleation score of 0.116 ± 0.28. With GQRNVVSYTSNMNVPLFSFG the amyloid nucleation score was “inactive”. In the case of LTGVLLMMVLYSRPHLTKAR, the amyloid nucleation score is reported as “inactive”. For TNQQYGSLGFISTSGIILLF, the amyloid nucleation score was “inactive”. With FGMSILVFFTVDRSLET the amyloid nucleation score was “inactive”. With VRIRGWFAGHGNFWFSL the amyloid nucleation score was “inactive”.
